Assay results as given in paper PMC9352689 (Nature Communications, 2022).
Substitutions are numbered along the chain they refer to.

B1: COVA1-07 (antibody, V domains shown)
VH: QVQLVESGAEVKKPGSSVKVSCKASGGTLSSYAITWVRQAPGQGLEWVGGIIPIFGTANYAQKFQGRVTITADESTSTAYMELSSLRSEDTAVYYCARVGAYDSSGYSNDYWGQGTLVTVSS
VL: DIQLTQSPATLSLSPGERATLSCRASQSVSSYLAWYQQKPGQAPRLLIYDASNRATGIPARFSGSGSGTDFTLTISSLEPEDFAVYYCQQRSNWPPRVTFGGGTKVEIK
notes: copies: 2 + 2
B2: COVA2-14 (antibody, V domains shown)
VH: B1 VH with E6Q, L29F, T35I, V48M, A72T, G100R, A101Y, S108Y, N109E
VL: B1 VL with D1E, Q3V, K39E, R97M, V98Y, G102Q
notes: copies: 2 + 2
B3: COVA2-18 (antibody, V domains shown)
VH: EVQLVQSGAEVKKPGSSVKVSCKASGGTFSSYAISWVRQAPGQGLEWMGGIIPIFGTTNYAQKFQGRVTITTDESTSTAYMELSSLRSEDTAVYYCARVYSYDSSGYYLEYWGQGTRVTVSS
VL: B1 VL with D1E, Q3V, R97S, V98I, G102Q, K105R, V106L
notes: copies: 2 + 2

How the values were obtained:
[1] = molecular target: SARS-CoV S, full-length, on the cell surface (SARS-CoV, strain , UniProt P59594); test: flow cytometry on cells; details: one partner purified
[2] = molecular target: bat CoV SHC014 S, full-length, on the cell surface (Bat SARS-like coronavirus RsSHC014, UniProt U5WLK5); test: flow cytometry on cells; details: one partner purified
[3] = molecular target: HCoV-NL63 S, full-length, on the cell surface (HCoV-NL63, strain , UniProt Q6Q1S2); test: flow cytometry on cells; details: one partner purified
[4] = molecular target: HCoV-OC43 S, full-length, on the cell surface (HCoV-OC43, strain , UniProt P36334); test: flow cytometry on cells; details: one partner purified
[5] = molecular target: HCoV-HKU1 S, full-length, on the cell surface (HCoV-HKU1, isolate  (entry: …, UniProt Q5MQD0)); test: flow cytometry on cells; details: one partner purified
[6] = molecular target: HCoV-229E S, full-length, on the cell surface (HCoV-229E, strain , UniProt P15423); test: flow cytometry on cells; details: one partner purified
[7] = molecular target: MERS-CoV S, full-length, on the cell surface (MERS-CoV, strain , UniProt K9N5Q8); test: flow cytometry on cells; details: one partner purified
[8] = molecular target: T1, SARS-CoV-2 S, full-length wild type, expressed on the cell surface (SARS-CoV-2, labelled B.1 in Fig. S6A, UniProt P0DTC2); test: flow cytometry on cells; details: one partner purified
T1 construct: source: HEK293T, transfected, on the cell surface

[9] = molecular target: SARS-CoV-2 soluble S2, his-tagged (SARS-CoV-2, ancestral (Wuhan-Hu-1), UniProt P0DTC2); test: ELISA; COVA MAbs on SARS-CoV-2 S and on soluble S2 (Fig. S5A); format not told; details: both partners purified

Binder	binding result [1]	binding result [2]	binding result [3]	binding result [4]	binding result [5]	binding result [6]	binding result [7]	binding result [8]	binding result [9]
B1	binds	binds	no binding (tested: 50 μg/mL)	no binding (tested: 50 μg/mL)	no binding (tested: 50 μg/mL)	no binding (tested: 50 μg/mL)	no binding (tested: 50 μg/mL)	binds	binds
B2	binds	binds	no binding (tested: 50 μg/mL)	no binding (tested: 50 μg/mL)	no binding (tested: 50 μg/mL)	no binding (tested: 50 μg/mL)	no binding (tested: 50 μg/mL)	binds	binds
B3	binds	binds	no binding (tested: 50 μg/mL)	no binding (tested: 50 μg/mL)	no binding (tested: 50 μg/mL)	no binding (tested: 50 μg/mL)	no binding (tested: 50 μg/mL)	binds	binds
